{"source": "paper PMC6414276", "origin": "cited, not measured here", "key": {"CBP TAZ1 (Mus musculus) [1]": {"biological_target": "CBP TAZ1 (Mus musculus) (UniProt P45481)", "sequence (P45481 340-439)": "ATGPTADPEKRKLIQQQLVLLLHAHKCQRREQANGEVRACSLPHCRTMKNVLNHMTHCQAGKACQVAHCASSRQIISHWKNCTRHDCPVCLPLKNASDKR"}, "CBP TAZ1 (Mus musculus) [2]": {"biological_target": "CBP TAZ1 (Mus musculus) (UniProt P45481)", "remark": "listed apart in the source"}, "CBP TAZ1 (Mus musculus) [3]": {"biological_target": "CBP TAZ1 (Mus musculus) (UniProt P45481)", "remark": "listed apart in the source"}}, "note": "Like-named read-outs stand apart in the source and are kept apart here.", "data": [{"substance": "HIF-1α LPQL-αB motif (from UniProt Q16665)", "values": [{"measurement": "Kd", "setting": "CBP TAZ1 (Mus musculus) [1]", "value": "> 1", "unit": "mM"}]}, {"substance": "HIF-1α αC motif (from UniProt Q16665)", "values": [{"measurement": "Kd", "setting": "CBP TAZ1 (Mus musculus) [2]", "value": 200, "unit": "µM"}]}, {"substance": "HIF-1α 790-826 (from UniProt Q16665)", "values": [{"measurement": "Kd", "setting": "CBP TAZ1 (Mus musculus) [3]", "value": 47, "unit": "nM"}]}]}
